Results taken from article doi:10.1101/2023.10.27.564453.

Biological target: MIK2 ectodomain (MIK2^LRR), residues 45-707, 6 x His-MBP tagged (Arabidopsis thaliana) (UniProt Q8VZG8)
Test: MST

Sequence of UniProt Q8VZG8 (Q8VZG8 45-707): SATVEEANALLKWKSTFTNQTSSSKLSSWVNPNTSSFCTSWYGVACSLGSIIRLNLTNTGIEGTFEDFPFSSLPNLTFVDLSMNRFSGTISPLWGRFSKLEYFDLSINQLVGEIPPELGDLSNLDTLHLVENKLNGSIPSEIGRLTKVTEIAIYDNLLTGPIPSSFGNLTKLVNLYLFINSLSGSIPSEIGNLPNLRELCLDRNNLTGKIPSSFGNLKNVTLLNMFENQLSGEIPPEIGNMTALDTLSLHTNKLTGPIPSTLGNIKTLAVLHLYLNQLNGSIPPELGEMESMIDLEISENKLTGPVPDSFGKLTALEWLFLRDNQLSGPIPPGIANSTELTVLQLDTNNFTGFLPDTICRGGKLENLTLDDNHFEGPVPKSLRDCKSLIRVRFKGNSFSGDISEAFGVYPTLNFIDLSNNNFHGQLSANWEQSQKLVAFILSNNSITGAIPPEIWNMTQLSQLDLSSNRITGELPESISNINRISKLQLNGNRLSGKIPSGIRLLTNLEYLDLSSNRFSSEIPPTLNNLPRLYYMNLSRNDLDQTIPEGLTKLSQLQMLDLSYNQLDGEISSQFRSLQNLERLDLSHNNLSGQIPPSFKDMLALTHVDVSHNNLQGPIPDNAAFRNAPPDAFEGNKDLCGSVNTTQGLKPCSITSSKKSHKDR

“5-FAM-SCOOP10 peptide (SCOOP10#2, N-terminally 5-FAM labelled) (from UniProt Q9LU08 30-98)” was tested, and the Kd was 13.5 nM.
For “5-FAM-SCOOP12 peptide (N-terminally 5-FAM labelled) (from UniProt B3H7I1 44-78)”, the Kd was 22 nM.
Work on “SCOOP12 peptide (unlabelled) (from UniProt B3H7I1 44-78)” yielded a Ki of 40.1 nM.
